Measured values published in the DeepSol protein solubility set.

assay: soluble on expression in E. coli; label from the status in PepcDB or PDB records

Row | Sequence | soluble on expression in E. coli
1 | MSLKQTNPFVYSNDNKRYHTWNYCLREEFGQKTYKVALDGGFDCPNRDGTVAHGGCTFCSAAGSGDFAGNRALDLKIQFQQVRDKMQTKWKDGKCIAYFQAFTNTHAPVAELREKFETVLNEPGVVGLSIATRPDCLPDDVVEYLAELNERTYLWLELGLQSAHDETGRLINRAHDYDCYVEGVRKLQKHNIRICTHIINGLPKETPEMMMETTRKVVESGVDGIKIHLLHLLKGTPMVEDYKKGDLEFLTRDGYVNLVADQLEILPPEMVIHRITGDGGVDDLIGPVWSLNKFEVLNAIDAELVRRDSWQGKLYQPVEVNAKEGHHHHHH | soluble
2 | MHRYPRPVSPPVYGPYGSGGHYNPYFHYGVSSFPSAPVHWPHLPSGHAAPPSYPMPYPKPGPLLPPPRPSFLAQFKNSDGTYDINKMMSTVGQMINTVNQVNGVLKGLLGTFKK | not soluble
3 | MKTLLQTTLKLLVASSLVLGMTASTLMAETKSKFQVAWTIYVGWMPWDYAAQSGILDKWAKKYGIEIEMVQVNDYVESINQYTAGKFDGCVMTNMDALTIPAAGGVNSTALIAGDFSNGNDGIILKGKKRLSEIKGQKVNLMELSVSHYLLARGLESVGLSERDVSVVNTSDADIVAAYSTKEVSALVTWNPQLSEVKSMKGANLVFDSSQIPGEIIDLMVLNTQTLKENPNLGKALTGAWFEVLALMKKGDLTALSAMAKASGTDLAGYKKQLESTKMFYEASEAVKFITSAELPETMKKVSEFSFEHGILGEGASSAAFVGMEFPGGKSFGDPKNLKLRFIDTYVKMAAEGKL | not soluble
4 | YCTLDDLILSFGQDEIYRLIATDQEAEKALDDAQAEIDMYLSDRYALPVKSVPKSLNRIACDIAHYYLYNSVDEDSTVYLRYKHRIKQLSDVAAGKLSLGLYDKSDDATTDNQVVFIKSSKKVFAR | not soluble
5 | MAHHHHHHMDTRMKDLSFKVVLLGEGRVGKTSLISRYVHNAFDEKEASTVQASMHSSKAVPINDASSAPGAIREVDLALWDTAGQERFHALAPMYYRNADGAIIVYDVTDADTLRKVRTWAKELYAVVGEGKIQLVLCGNKADTPLAEREVSEGEGAAMAAELGASHFFASAKTGQNVAEVFSAMATQVARSREVTGMGGGVAAGGSSGSSGGGAYTGISGRTPSRSRARRGLMVVTEDGEAVTPGRSSPCEGRVYGGITPPRAHRYGSSGTNQPITLSADGSPDAAAAANKSGCC | soluble
6 | MNLDQELAEIRASSSDHTNYFYSSERREHMFDKVLTPSDVGKLNRLVIPKQHAENFFPLEDNQNGTVLDFQDKNGKMWRFRYSYWNSSQSYVMTKGWSRFVKEKKLFAGDTVSFYRGYIPDDNAQPERRRKIMFIDWRPRAEINFVHNINNHNFVFGSPTYPTARFYPVTPEYSMPYRSFPPFYQNQFQEREYLGYGYGRVVNGNGVRYYAGSPLDQHHQWNLGRSEPLVYDSVPVFPAGRVPPSAPPQPSTTKKLRLFGVDVEESSSSGDTRGEMGVAGYSSSSPVVIRDDDQSFWRSPRGEMASSSSAMQLSDDEEYKRKGKSLEL | soluble
7 | MSTDNLLQPKLIEATLGDYPVIQNMARFYVYDMSRYCGFISEEWTCPPDGLYESYDFKIYFTDPERKAFLIQIDNELAGFALLNKFGIQAVDWSMGEFFILAKFQGKGIGQSVAHQLWRTHPGEWEISVIPENIPALSFWRQAVMTYTLGRYKEQIKTVNYDIHQTQRIILSFNTQKQNKSCHSIPKKPITIDFVDNIPKSLEKKMTEDLIAYERTHGIDVNYKRFSIVLSEEGVTCGVINAFTAFAEIYIDDIWVDKAYRGKGYGKKLLQTLENHFKGQGFNNINLCTSAFQAPEFYRKCGYTAEFTRINQANPKLSKTFFVKFFDDENQTQGLF | soluble
8 | MQDEFDLFRTETKGIKPIKQDTFVAPRQKRDQKKIELKELRAKEDTLFYFSDEYEPLLNDNDGVVKYLRDGEDSHLLKQLRRGDFSPELFLDLHGLTREQAKQELAALLLACENEHVDCASIMTGYGTFTLKKQIPRWLVQHPKVRALHQAPREWGGEAAILILVDL | soluble
9 | MKQTQRHDAIIELVKKQGYVSTEELVEHFSVSPQTIRRDLNDLAEQNMILRHHGGAALPSSSVNTPWHDRKATQTEEKERIARKVAAQIPNGSTLFIDIGTTPEAVAHALLGHSNLRIVTNNLNVANTLMAKEDFRIILAGGELRSRDGGIIGEATQDFIAQFRLDFGILGISGIDSDGSLLEFDYHEVRTKRAIIENSRHVMLVVDHSKFGRNAMVNMGSISMVDAVYTDTLPPPGVMQVLTENHIQLELCLEHHHHHH | soluble
10 | MGSDKIHHHHHHMTAAESIYALYPYIQHAQLLAHNEKIKQDNVIFTYTVSLSYDEISLRVLHVDSDNTKHIHIQVLFEINQGKIYVKDLYHNSGAAFELLTSIKSNPSLHQASFAQNSVPASWLSRDILNSLAIADRIAQKAINQYAGDDYRPGYYSQIECSGTQLILSQINHMNSRSLSHKENYSLRNLTFTIPLNGKADSEMLYNTDRIGIMNINFSDHSSANNRSAGDAVKNQIAEEIRLYQNDVE | not soluble
11 | MSSSAAKYDVFQAIADPTRREVIRLLSDKELPISKITDHFPMSRTAVVKHLHILSEANLVSGRKSGREKIYRLHPEPLEELQQWLSYYERFWDNKLSMLKHIVENEE | not soluble
12 | MRGSHHHHHHTDPALRAKPENKLPVLDLISAEMKTVVNTLQPDLPPWPATGTIAEQRQYYTLERRFWNAGAPEMATRAYMVPTKYGQVETRLFCPQPDSPATLFYLHGGGFILGNLDTHDRIMRLLASYSQCTVIGIDYTLSPEARFPQAIEEIVAACCYFHQQAEDYQINMSRIGFAGDSAGAMLALASALWLRDKQIDCGKVAGVLLWYGLYGLRDSVTRRLLGGVWDGLTQQDLQMYEEAYLSNDADRESPYYCLFNNDLTREVPPCFIAGAEFDPLLDDSRLLYQTLAAHQQPCEFKLYPGTLHAFLHYSRMMKTADEALRDGAQFFTAQLGLCGR | soluble
13 | MSLSNLINGKIPNQAIQTLKIVKDLFGSSIVGVYLFGSAVNGGLRINSDVDVLVVVNHSLPQLTRKKLTERLMTISGKIGNTDSVRPLEVTVINRSEVVPWQYPPKREFIYGEWLRGEFENGQIQEPSYDPDLAIVLAQARKNSISLFGPDSSSILVSVPLTDIRRAIKDSLPELIEGIKGDERNVILTLARMWQTVTTGEITSKDVAAEWAIPLLPKEHVTLLDIARKGYRGECDDKWEGLYSKVKALVKYMKNSIETSLNEGHHHHHH | soluble
14 | MSLKINAILDQSNASAEKVDAYQVQLTNGISEAKNIADEAGKEAVQIATDAGNQANETANQAMNNAKTAIMIAGNAVSTANNNKQEFDTLRNDFDQLVAEAGDSNPEIVQARTDTQGIKQATLANRLQIDLNDRMTKADGISLLAKPTTVKMKLDFNGKTAGNTATNANSYSTDFTAKILKKPTEVWEEVSQADYNKMASRDDEGVKTGSTQSGVIPQQLAAFNLVEAAKKLIPQMFETVTTDEAVAFIRQNVQFFTINQRVKAAAPNNQTIKIATYLPTTDNWVTQIQESAKEFGDFSIQINDQNFITDEGFIYLMSYTDSSNGVTPASLEVDYVGLHIGLSVDAQAVLAKSGFVQAEQLNTHMENQDNPHQVTAEQVGLGNVENYGFASDSEAVAGTLTSKYMHPKNVAEAIKGQAVTQTGDQEIAGVKNFVTMPTVNGVPLESSRMAIYEASGVGEVEAKYQAAFNKDNMKFVLIRVGNRVDAFVRCNLSDPTKLNNNLVKVFTVPTGYTLSTKITKGIWNLALTAMQYTFPQPNCAGLYEMGNQGILFGANRAGNIYLQGSWYTDDPFPTKEGHHHHHH | soluble
15 | KEPSHNSFTFNESLSFTGFSKLDNNTNFNASIVSDDNRAGAMVFGQARYRNHWDANNDGYSELGKIDARSLGAHSYLRLSDYSKLTGEFHTISEFRRGGDRIDLPPHVVGVAEQTDHSVFSGNLKYDLFSSNYKHHFQAYTSGQIVNRKSYYGGIGEIDVNGHPGGTEGYPIPQDQYGNNYGVTKGKTYMGGIQYSYDLDKFLLMPSQLLFGAEYTRDELNDVMPILSWQTGEDANGNTIPLYPELDQNINNYSLFGQNEWKNDRWSILVGARLDKHSEVKDMILSPRTTLRFNVNPDINLRATYAKGFRAPQVFDEDLHVGVVGGEAQKVFNDPNLKPEISHAFSLSADMYHRFGNVQTNFLVEGFYTRLLDVFTNEEQPDQHDGIKRYTRINGSGAKVFGLNLEGKVAYKSFQLQAGLTLASNKYDEAQEWGLNTVKDTNGAFVTEANANGQQEYKNESMTDTQITRTPSVYGYFTLAYNPAHSWNIALTGAYTGQMYVPHAIEYGVKSAELDIMQNNPEITDETGKAPRIDELKKTPAFFDLGLKVGYDFHVFQATEVQLYVGMNNIFNSFQKDFDRGAARDSGYIYGPTQPRTGYMGLVVKF | not soluble
16 | AFYNITLRTNDGEKKIECNEDEYILDASERQNVELPYSCRGGSCSTCAAKLVEGEVDNDDQSYLDEEQIKKKYILLCTCYPKSDCVIETHKEDELHDM | soluble
17 | MSRGPEEVNRLTESTYRNVMEQFNPGLRNLINLGKNYEKAVNAMILAGKAYYDGVAKIGEIATGSPVSTELGHVLIEISSTHKKLNESLDENFKKFHKEIIHELEKKIELDVKYMNATLKRYQTEHKNKLESLEKSQAELKKIRRKSQGSRNALKYEHKEIEYVETVTSRQSEIQKFIADGCKEALLEEKRRFCFLVDKHCGFANHIHYYHLQSAELLNSKLPRWQETCVDAIKVPEKIMNMIEEIKTPASTPVSGTPQASPMIERSNVVRKDYDTLSKCSPKMPPAPSGRAYTSPLIDMFNNPATAAPNSQRVNNSTGTSEDPSLQRSVSVATGLNMMKKQKVKTIFPHTAGSNKTLLSFAQGDVITLLIPEEKDGWLYGEHDVSKARGWFPSSYTKLLEENETEAVTVPTPSPTPVRSISTVNLSENSSVVIPPPDYLECLSMGAAADRRADSARTTSTFKAPASKPETAAPNDANGTAKPPFLSGENPFATVKLRPTVTNDRSAPIIR | soluble
18 | MEKILIFGHQNPDTDTICSAIAYADLKNKLGFNAEPVRLGQVNGETQYALDYFKQESPRLVETAANEVNGVILVDHNERQQSIKDIEEVQVLEVIDHHRIANFETAEPLYYRAEPVGCTATILNKMYKENNVKIEKEIAGLMLSAIISDSLLFKSPTCTDQDVAAAKELAEIAGVDAEEYGLNMLKAGADLSKKTVEELISLDAKEFTLGSKKVEIAQVNTVDIEDVKKRQAELEAVISKVVAEKNLDLFLLVITDILENDSLALAIGNEAAKVEKAFNVTLENNTALLKGVVSRKKQVVPVLTDAMAE | soluble
19 | MGEYERTVFTRRITGVETEYGITCVGDNSRRRLGADEAARYMFRPVVEEWGSSNVFIPNGARLYLDVGSHPEYASAECDSLSQLIAYDRAGDKIVDQLAQRAETALATEGIGGRVYLFKNNLDSLGNSYGCHENYLVSRDVVLKTLGRQLLPFLITRQLICGAGSIQDGQFQVSQRADHVWEGVSSATTRSRPIINTRDEPHADSHRFRRLHVIVGDSNMSETTCALKIGSTQLVLEMIEAGALSHDLELSNEIAAIREISRDITGMAPVPLKAGTSMPAIEIQRRYAEKALCWLEQRGDTEGTPNAEMHKVVSLWLDTISAIESNDLQALSRDIDWAIKLSLLRRAQRRIGCSESDFTHPKLAQLDLAYHDIRAGRGVFPVLESKQLVNRWINDTDIEQATRIAPSTTRAALRGEFLTAAKKLQAPISADWLRLKVNRPEPQIIELTDPFENTDDRVDQLISYMRNHAASYSTDTAIS | not soluble
20 | MDELFTESAKAVLAIAQEEAKYFRHQSVGSEHLLLALVLEPNGIAGKTLRQLNTDTEDIREEIEHLSGYGTMQSPMGNNNLYLPYSPRAKQIFAYAGDEAKRLGAQKIGTEHLLLGLLRDEEILASRILVNLGLSLSKMRQLLLKKMG | soluble
